Test results: US20110045003A1 (SYNOVEX, published 2011)
Residue numbers refer to the chain shown, from its start. In names and notes the source's numbering stands. Blank lines part the entries; values can stand above or below the binder they belong to.

Assays:
[1] = target: T1, recombinant his-tagged human Cad-11 (R&D Systems) (human, UniProt P55287 54-617); assay: SPR, rhCad-11 immobilized, SDP051 as analyte, 2 state reaction model
T1 construct: also called rhCad-11; recombinant human Cad-11; not shown: his tag
T1 sequence: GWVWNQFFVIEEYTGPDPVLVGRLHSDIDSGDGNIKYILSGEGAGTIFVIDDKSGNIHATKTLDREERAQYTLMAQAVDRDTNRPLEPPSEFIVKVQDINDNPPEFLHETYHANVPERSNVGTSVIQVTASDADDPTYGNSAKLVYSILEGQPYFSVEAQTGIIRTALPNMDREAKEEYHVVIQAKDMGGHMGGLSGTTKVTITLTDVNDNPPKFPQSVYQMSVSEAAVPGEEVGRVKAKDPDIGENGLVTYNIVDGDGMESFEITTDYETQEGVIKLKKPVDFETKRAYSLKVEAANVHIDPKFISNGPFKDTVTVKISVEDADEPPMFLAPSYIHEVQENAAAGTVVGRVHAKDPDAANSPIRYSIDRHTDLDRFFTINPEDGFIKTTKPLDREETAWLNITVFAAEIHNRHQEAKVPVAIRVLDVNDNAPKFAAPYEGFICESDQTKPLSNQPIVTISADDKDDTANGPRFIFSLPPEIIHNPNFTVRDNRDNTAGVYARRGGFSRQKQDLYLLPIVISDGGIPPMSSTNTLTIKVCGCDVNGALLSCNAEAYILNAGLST
Experimental: (§1) To determine the affinity of SDP051 for recombinant his-tagged human Cad-11, rhCad-11 (R&D Systems) was immobilized to the chip at a single concentration, high resolution kinetics were determined for SDP051, and a 2-state reaction binding model was successfully fitted to the kinetic data.
(§2) Kinetic data were obtained at a flow rate of 40 μL/min to minimize any potential mass transfer effects. An analyte concentration series ranging from 12.5 nM to 0.195 nM was prepared by serial dilution. Two repeats of the blank (no mAb) and the 3.125 nM (first and last cycle) concentration of the analyte were programmed into the kinetic runs in order to check the stability of both the surface and analyte over the kinetic cycles. The SDP051 was injected over the Fcs for 360 seconds, long enough to observe the curvature in association phase.
(§3) As rhCad-11 is homodimeric and therefore contained two identical binding epitopes, it is likely that individual mAb molecules become bound sequentially through a first binding site and then both binding sites.

[2] = target: T1, recombinant his-tagged human Cad-11 …; assay: SPR, rhCad-11 immobilized, SDP051 as analyte, 2 state reaction model (ka1)
Experimental: as §1, §2, §3

[3] = target: T2, BSA coupled 37-mer Cad-11 peptide encompassing the Cad-11 immunogen (UniProt P55287 54-90, limits assumed, linked to BSA); assay: ELISA, BSA-coupled 37-mer cadherin peptide coated at 500 ng/ml, antibody titrated, A450
T2 construct: domain: 37-mer peptide encompassing the Cad-11 immunogen; also called Cad-11 antigen; Cad-11 peptide immunogen
T2 peptide (looked up): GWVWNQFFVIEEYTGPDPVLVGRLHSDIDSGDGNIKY
Experimental: Reactibind plates (ThermoScientific) were coated with 500 ng/ml of the BSA coupled cadherin 37-mer peptide (NE peptide) corresponding to Cadherins-7, -8, -9, -11, -18, -20, and -24 in 0.05% Tween (EMD, product code 9480) in PBS (pH 7.2) (Gibco(Invitrogen), #20012) at 100 μl volume/well for overnight at 4° C. The peptide containing solution was removed from the well and the plate blocked with a 2% bovine serum albumin (BSA) in PBS, 200 μl volume/well, for 2 h at 22° C. The plate was then washed twice with 200 μl/well of PBS-Tween 0.05% at 22° C. and blotted dry. A dilution series from 5 μg/ml to 8 ng/ml in a volume of 100 μl/well of each the humanized anti-Cad-11 antibodies were incubated in the peptide coated wells and incubated at 22° C. for 1 hr. Antibody solution was removed from the wells and the plate washed twice with 200 μl/well of 0.05% Tween-PBS at 22° C. and blotted dry. The goat-anti mouse IgG (Pierce # 31432) was added to each well to plate at a 1:1000 dilution, 100 μl/well and incubate at 22° C. for 30 min. The secondary antibody solution was removed and the plate washed twice with 200 μl/well of 0.05% Tween-PBS at 22° C. and blotted dry. The reaction was developed by adding 100 μl/well tetramethylbenzidine (TMB) reagent IgG (Pierce # 34022, 1 step Turbo TMB-ELISA) to plate and developed at 22° C. for 5 min.

[4] = target: T3, Cad-9 EC1 domain peptide (region overlapping G1-G33 of Cad-11 EC1) (UniProt Q9ULB4 54-86, conjugated to biotin); assay: ELISA on biotinylated EC1 domain peptide captured on a Neutravidin plate, goat anti-mouse IgG, TMB, A450
T3 construct: domain: first 33 amino acids of the EC1 domain
T3 peptide (looked up): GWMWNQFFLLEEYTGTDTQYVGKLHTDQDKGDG
Experimental: (§4) The specificity of H1M1 and H14 anti-Cad-11 antibodies was tested further using an ELISA against the first 33 amino acids of the EC1 domains of Cad-11, Cad-7, Cad-8, Cad-20, Cad-24, Cad-9, Cad-18, and MN-Cad. Peptides corresponding to the region of Cad-7, Cad-8, Cad-20, Cad-24, Cad-9, Cad-18, MN-Cad that overlapped with the G1-G33 region of the Cad-11 EC1 domain were synthesized and conjugated to biotin. 100 μl of a 30 ng/ml solution of each of these peptides in PBS-Tween (0.05%) were incubated in each well of a 96-well Netravidin plate for 2-3 hrs at 4° C. and then washed twice with PBS-Tween (0.05%). Various concentrations of the anti-Cad-11 antibody were incubated in each well for 1 hr at 22° C. and then washed twice with PBS-Tween (0.05%). 100 μl of a 1/1000 dilution of a goat anti-mouse IgG secondary antibody were added to each well, incubated for 30 min at 22° C., and then washed twice with PBS-Tween (0.05%). 100 μl/well of room temperature TMB (3,3′,5,5′-tetramethylbenzidine) reagent was added to each well and color was allowed to develop for 5 min at 22° C.

[5] = target: T4, Cad-20 EC1 domain peptide (region overlapping G1-G33 of Cad-11 EC1) (UniProt Q9HBT6 60-92, conjugated to biotin); assay: as above
T4 construct: domain: first 33 amino acids of the EC1 domain
T4 peptide (looked up): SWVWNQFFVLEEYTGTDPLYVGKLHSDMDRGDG
Experimental: as §4

- Kd [1]: 0.379 nM
- kon [2]: 613000 M⁻¹ s⁻¹
- EC50 (read off the curve) [3]: ~0.04 µg/mL
B1: humanized anti-Cad-11 EC1 antibody SDP051 (Vκ1/VH5) (antibody, IgG4, V domains shown)
VH: EVQLVQSGAEVKKPGASVKVSCKASGYSFTGYFMNWVRQAPGQGLEWIGRINPYTGDTFYNQKFKGRVTITVDKSTSTAYMELSSLRSEDTAVYYCGRLGSRYWYFDVWGQGTTVTVSS
VL: DVLMTQTPLSSPVTLGQPASISCRSSQSIIHSNGNTYLEWYLQKPGQSPQLLIYKVSNRFSGVPDRFTGSGSGTDFTLKISRVEAEDVGVYYCFQGSHVPWTFGQGTKLEIK
notes: humanized IgG4 (S241P), kappa

- binding result [4]: no binding
- binding result [5]: no binding
B2: murine H1M1 monoclonal anti-Cad-11 EC1 antibody (hybridoma H1M1, ATCC PTA-9699) (antibody, V domains shown)
VH: EVQLQQSGPELVKPGASVKISCKASGYSFTGYFMNWVKQSHGKSLEWIGRINPYTGDTFYNQKFKGKATLTVDKSSSTAHMELLSLSSEDSAVYYCGRLGSRYWYFDVWGAGTTVTVSS
VL: B1 VL with S11L, T14S, Q17D, P18Q, Q50K, V88L, Q105G
modifications: Biotinylated when used as the labelled competitor in Example 14; the letters are unchanged.
notes: murine antibody raised against Peptide 4; also called SYN0012; SYN0012/H1M1
